The values that follow come from the supplement of paper PMC9942255.

The data set concerns Bacillus subtilis DB104 (SP-AmyQ fusion secretion). The experiment in a line: AmyQ secretion efficiency, weighted average sort bin (1 = best secretion, 10 = worst) (bin number (weighted average, 1-10)); higher = lower secretion efficiency. In outline: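 A B. subtilis DB104 library carrying amyE-integrated fusions of designed signal peptides to mature AmyQ was encapsulated at about 0.3 cells per ~65 nL alginate bead with fluorescein-starch and grown about 13 h at room temperature. Following nile red staining, occupied beads were flow-sorted as large particles into 10 equally populated bins by green/red fluorescence ratio, and the bin amplicons were Illumina-sequenced. The secretion score is the read-frequency-weighted average bin number normalised to beads per bin, leaving out low-abundance sequences.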

In turn, MNLRKIMSIMNIILLSSALSLGMLVSAAPVLATSS came in with an AmyQ secretion efficiency of 2.04. For the sequence MTTKYSKQSKQLLCFMPAAKIEHTQASLL, the AmyQ secretion efficiency came out at 7.85.

Consider MKKVMLATALFLGLTPAGANAARR, for which the AmyQ secretion efficiency came out at 4.33. MKVPKTMLLSTAAGLLLSLTATSVSIHYV came in with an AmyQ secretion efficiency of 5.12. The result for MKKRKRRNFKRFIAAFLVLALMISLVPADVLAAKR reads 5.17; that for MKQRKRVSALTPSTTLAITAKAKEL, 7.26.

In turn, MKKCLLFLTTIALILSLSTNAFAANR registered an AmyQ secretion efficiency of 1.56. Regarding MKNMSCKLVVSVTLFFSFLTIGPLNHAQNS, the AmyQ secretion efficiency was found to be 5.54. On to MKVPKTMLKKRKRKLLLSLTATSVSAHYV, for which the AmyQ secretion efficiency was determined as 5.33. The figure for MNLRKILLSSALSLGMLVSAAPVLHTSS is 6.17; for MKKRFSLRRRKRKLFGLTSPAFAAEK it is 7.37; for MLTLRTLCVLMILSGVIFFGLKIDAKDI it is 6.18. The figure for MRSYIKVLTMCFLGLILFVPTALAANR is 2.08.

The sequence MRKKLKWLSFLLGFIILLFLFKYQASNNDS had an AmyQ secretion efficiency of 7.34.

For MKWMCTKCCTYQQLAGGAAQAEAV, the AmyQ secretion efficiency was 7.81. The figure for MNKKYFVLIVCIIFTSALFPTFSSVTTAQG is 1.05; for MTMLRKIIGWILLLCIIPLFAFTVIASCKEV it is 8.74. MNLRKILLSSALSLGMLVSAAPELATSS registered an AmyQ secretion efficiency of 3.72. Sequence MLKKKWMVGLLAGCLAAGTTSAAFTFFTGFSYNAFATEN returned an AmyQ secretion efficiency of 7.04. Sequence MKKSQYFIVFICFFVLFSEHEEAAAAADS registered an AmyQ secretion efficiency of 4.11. The sequence MGLGKKLSVAVAASFMSLSISLPGGPAVQAAEG returned an AmyQ secretion efficiency of 1.61. The figure for MRKYTFVIASILLSFLSVLSGGHHESKAFPV is 5.44. The figure for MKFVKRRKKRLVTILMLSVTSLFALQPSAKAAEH is 2.78. The sequence MLCVMMLLFSSFPVSAQAKDQ returned an AmyQ secretion efficiency of 5.51. As to MKLAKRVSALTPSTTLAITAKPKEL, the AmyQ secretion efficiency was determined as 6.44. The figure for MRKTIFAFLTGLMMFFGTITAASASPD is 1.98. The figure for MRGKSAVLLSLIMLIAGFLISFNFQM is 6.3; for MHLIRAAGAVCLAVVLIAGCRFNEDQHQAENENT it is 5.95; for MFMQIITATTAVVLGSTLFAGAASAQSI it is 3.83. The sequence MKKKIVAGLAVSAGSSMAAAPAEAKTI yielded an AmyQ secretion efficiency of 7.16. In turn, MRRKRKRTSLLLAGLCTAAQMVFVTHASAEES came in with an AmyQ secretion efficiency of 2.89.

In the case of MKMKSGMEQAVSVLLLLSRLPVQYSLTSE, the AmyQ secretion efficiency was found to be 5.01. The figure for MNFKKTVVSALSISALALSVSGVASAHSD is 2.93; for MNLRKILLSSALSLGMLVSAAPVLLTSS it is 7.26; for MLCVMMLLFSAIASFPVSYQAKDQ it is 6.1. The result for MRPVFPLILSAVLFLSCFFGARQTEASSSKR reads 3.03; that for MRKVFPLILSAVLFLSCFFGARQTEASASKR, 2.13; that for MKKGYSTTSTGVLVTTVFLVKQQESVAQAKQL, 7.95. The result for MKKVLMAFIICLSLILSVLAAPPSGNKAESV reads 4.42; that for MKVLLSALLLLLFARRKSASGKKL, 7.09; that for MKKSQYSRQSKCTFVLFSVHPIAAAAADS, 7.33. Take MTKRGIQAFAGGIILATAVLAAVFYLTDEDQAAAD: the AmyQ secretion efficiency came to 6.91. The figure for MKLKKRVSMFRKKKRKCGGLFVTPAKAVKT is 7.44; for MKKVILAAFILVGSTLGAFSFSSDASAKHV it is 2.08. The figure for MKKIVSILFMFGLVMRRKRKKPSTVFAADK is 7.34. MKLKSKLLLSCLALSTVFVATTIANAPRR had an AmyQ secretion efficiency of 6.72. Sequence MMKKLFHSTLIVLLFFSFFGVSPIHAKKQ had an AmyQ secretion efficiency of 2.2.

The sequence MKKEGKQYSRLCLSLSPLVSTNEVFAATT gave an AmyQ secretion efficiency of 7.68.

Sequence MLKKKWMVGLLAGCLAAGGFSYNAFATSD had an AmyQ secretion efficiency of 4.28. The figure for MRKKRVITCVMAASLTLGSLLAAAIASAKED is 5.2. The figure for MYKKFVPFAVFLFLFFVSFEMMENPHALDY is 7.08; for MRKKRVKRCKKKRSLTLGSLLPAGYASAKED it is 7.22. The result for MKRKKLLVSLRVWMVFLMNWVTPDRKTAAAAVY reads 7.43; that for MKWMCSICCAAVLLAGGAAQADDE, 6.18.

MPIKKKVMMCSKVTLVFGSMSFPTLTNSGGFKE had an AmyQ secretion efficiency of 7.22. The figure for MKRTWNVCLTALLSVLLVAGSVPFHMEAKKP is 2.19; for MKKKQVMLALTAAAGLGLTALHSAPAVKAAPL it is 1.99; for MLKKIALTLCPAIVGSLLFFTKPQASAHVS it is 3.85. The result for MKKRLIAPMLLSAASLAFFAMSGSIQAAAY reads 6.12. In the case of MKRLLVSLRVWMVFLMNWVTPDRKTAASAVY, the AmyQ secretion efficiency is 6.03.

As to MKKAAAVLLSLGLVFGFSYGAGHVKEAKTK, the AmyQ secretion efficiency stood at 6.72. Consider MSTMIVRMTLPLLIVCLAFSSFSASARAASE, for which the AmyQ secretion efficiency was determined as 2.3.

MRSYIKVLTMCFLGLILFVPTRLADNS: the AmyQ secretion efficiency was determined as 6.28. With MNFKKTVVSALSISASVSGVASAHEI, the AmyQ secretion efficiency was 5.11. The figure for MKLSVKIAGVLTVAAAAMTAKMYATDKGN is 5.75.

MHQIRAAGAVCLAVVLIAGCRFNEDQHQAEGENT showed an AmyQ secretion efficiency of 6.4. The sequence MKKKQVMLALTAAAGLGLTALHSAPASKAAPL showed an AmyQ secretion efficiency of 4.06.

The sequence MRKKRVILAAFILVGSTLGAFSFSSDASAKHV registered an AmyQ secretion efficiency of 2.62. The figure for MKSKWQRKRRSGLLLVAVGFSFTQVMVHAGET is 6.49. The figure for MKRLLSTLLIGIMLLITTILVSTLTFAPSAFAKQD is 1.3; for MKKRKKKFFGPIILAFILFAGAIAIPS it is 6.45; for MNVLLSALLLLLFAFEPSASGKKL it is 7.25. The figure for MRFTKFTFIMITVVGFLSVLGLAAVFPLTAQAEKA is 1.81; for MKLAKRVSALTPSTTLAITAKNKEL it is 8.25; for MKKWMITIAMLKRRRIALFVFISPLKSHKT it is 7.36.

For MKKQIITATTAVVLGSTLFAGAASAEEE, the AmyQ secretion efficiency is 2.04.

MRKYTVIASILLSFLSVLFGVAHESKAFPV: the AmyQ secretion efficiency stood at 3.89. The figure for MKLWMRKTLVVLFTIVTFGLVSPPAAGMADKP is 3.4; for MKSKGSIMACLILFSFTITTFINTETISGFSN it is 6.11. The result for MRPVFPLILSAVLFLSCFFGARQTESSASKR reads 3.91; that for MKRKKLCVMMLLFSAIASFPVSAQAKDQ, 2.65.
